Measured values published in IntAct's records for PubMed 23629652.

Target: klk5_human KLK5 (UniProt Q9Y337)
Sequence (Q9Y337 whole entry): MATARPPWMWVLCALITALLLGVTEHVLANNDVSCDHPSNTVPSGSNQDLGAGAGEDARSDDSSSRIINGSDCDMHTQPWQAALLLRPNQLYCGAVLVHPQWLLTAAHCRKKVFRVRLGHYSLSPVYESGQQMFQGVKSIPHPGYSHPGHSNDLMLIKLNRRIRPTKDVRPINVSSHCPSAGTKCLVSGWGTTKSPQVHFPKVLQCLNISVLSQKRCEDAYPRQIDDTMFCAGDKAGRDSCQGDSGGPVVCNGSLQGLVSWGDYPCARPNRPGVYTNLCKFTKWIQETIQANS

Substance: Filaggrin (Homo sapiens), P20930 S3385H;Y3388H;Q3389H;S3391H;T3392H
- effect of a mutation on the interaction: disrupting interaction
